These results are taken from article PMC11417995 (2024).

The assay has as its target ubiquitin (Homo sapiens, UniProt P0CG47). The experiment in a line: PPI-CONA.

A word on the Kd: it is the constant that tells how readily two partners part at equilibrium. Read a high Kd as lower affinity.

B1: CDC34A (protein)
chain: MARPLVPSSQKALLLELKGLQEEPVEGFRVTLVDEGDLYNWEVAIFGPPNTYYEGGYFKARLKFPIDYPYSPPAFRFLTKMWHPNIYETGDVCISILHPPVDDPQSGELPSERWNPTQNVRTILLSVISLLNEPNTFSPANVDASVMYRKWKESKGKDREYTDIIRKQVLGTKVDAERDGVKVPTTLAEYCVKTKAPAPDEGSDLFYDDYYEDGEVEEEADSCFGDDEDDSGTEES
modifications: CC0651
B1 showed a Kd of 12.2 µM.
